Data from patent publication US20240377408A1.

Tests used:
Assay in all cases: cell-based or functional assay
[1] = target: M64-AAEIR
[2] = target: M64-DAEIR
[3] = target: M64-EAEIR
[4] = target: M64-FAEIR
[5] = target: M64-LAEIR
[6] = target: human carbonic anhydrase 2 (wild-type hCAII) (Homo sapiens) (UniProt P00918)

| IC50 values (µM), colorimetric pNPA hydrolysis inhibition assay [1] [µM] | IC50 values (µM), colorimetric pNPA hydrolysis inhibition assay [2] [µM] | IC50 values (µM), colorimetric pNPA hydrolysis inhibition assay [3] [µM] | IC50 values (µM), colorimetric pNPA hydrolysis inhibition assay [4] [µM] | IC50 values (µM), colorimetric pNPA hydrolysis inhibition assay [5] [µM] | IC50 (µM), hCAII functional assay (p-nitrophenyl acetate hydrolysis) [6] [µM] | Substance |
| --- | --- | --- | --- | --- | --- | --- |
| 0.109 | 0.136 | 1.09 | 0.012 | 0.016 |  | Carbonic anhydrase I, Homo sapiens (scaffold) (from UniProt P00915 5-261) (enzyme) |
|  |  |  |  |  | 152 | FAAAE (peptide) |
